B1: de-glycosylated FGFR1-Fc (Fc fusion)
chain: RPSPTLPEQAQPWGAPVEVESFLVHPGDLLQLRCRLRDDVQSINWLRDGVQLAESNRTRITGEEVEVQDSVPADSGLYACVTSSPSGSDTTYFSVNVSDALPSSEDDDDDDDSSSEEKETDNTKPNRMPVAPYWTSPEKMEKKLHAVPAAKTVKFKCPSSGTPNPTLRWLKNGKEFKPDHRIGGYKVRYATWSIIMDSVVPSDKGNYTCIVENEYGSINHTYQLDVVERSPHRPILQAGLPANKTVALGSNVEFMCKVYSDPQPHIQWLKHIEVNGSKIGPDNLPYVQILKTAGVNTTDKEMEVLHLRNVSFEDAGEYTCLAGNSIGLSHHSAWLTVLEALEERPAVMTSPLYLE
modifications: N-glycans enzymatically removed with PNGase F
B2: Fully glycosylated extracellular domain of FGFR1 fused to the Fc fragment of human IgG1: FGFR1 IIIc (FGFR1-Fc) (Fc fusion)
chain: B1 chain
modifications: N-glycosylated (fully glycosylated)

Tests used:
T-Fc [1] = assay: BLI; deglycosylated FGFR1-Fc
KCK-FGF1.E [2] = molecular target: KCK-FGF1.E (UniProt P05230); assay: BLI; deglycosylated FGFR1-Fc
T-Fc [3] = assay: BLI
KCK-FGF1.E [4] = molecular target: KCK-FGF1.E (UniProt P05230); assay: BLI

| Binder | Kd (T-Fc [1]) | koff (T-Fc [1]) | koff (KCK-FGF1.E [2]) | Kd (T-Fc [3]) | Kd (KCK-FGF1.E [4]) | koff (KCK-FGF1.E [4]) |
| --- | --- | --- | --- | --- | --- | --- |
| B1 | 669 pM | 0.000448 s⁻¹ | 0.00222 s⁻¹ | – | – | – |
| B2 | – | – | – | 246 pM | 3190 pM | 0.000304 s⁻¹ |

— paper PMC9368766 (2022)
